According to publication PMC12086086:

Assays:
Western blot and qPCR = details: glycan lost; control: parental PANC-1
[1] = low-attachment sphere assay; details: glycan lost; control: parental PANC-1
soft agar colony assay = details: glycan lost; control: parental PANC-1
blot = details: glycan lost; control: wild-type RRM1
[2] = nocodazole release, PI flow cytometry; details: glycan lost; control: parental PANC-1
LC/MS = details: glycan lost; control: parental PANC-1
[3] = γH2AX, 53BP1, RPA immunofluorescence foci; details: glycan lost; control: parental PANC-1
LIVE/DEAD staining = details: glycan lost; control: parental PANC-1
[4] = XTT viability, 3-day gemcitabine; details: glycan lost; control: parental PANC-1

B1: ribonucleotide reductase large subunit M1 (RRM1): RRM1-T734A (protein)
parent chain: MHVIKRDGRQERVMFDKITSRIQKLCYGLNMDFVDPAQITMKVIQGLYSGVTTVELDTLAAETAATLTTKHPDYAILAARIAVSNLHKETKKVFSDVMEDLYNYINPHNGKHSPMVAKSTLDIVLANKDRLNSAIIYDRDFSYNYFGFKTLERSYLLKINGKVAERPQHMLMRVSVGIHKEDIDAAIETYNLLSERWFTHASPTLFNAGTNRPQLSSCFLLSMKDDSIEGIYDTLKQCALISKSAGGIGVAVSCIRATGSYIAGTNGNSNGLVPMLRVYNNTARYVDQGGNKRPGAFAIYLEPWHLDIFEFLDLKKNTGKEEQRARDLFFALWIPDLFMKRVETNQDWSLMCPNECPGLDEVWGEEFEKLYASYEKQGRVRKVVKAQQLWYAIIESQTETGTPYMLYKDSCNRKSNQQNLGTIKCSNLCTEIVEYTSKDEVAVCNLASLALNMYVTSEHTYDFKKLAEVTKVVVRNLNKIIDINYYPVPEACLSNKRHRPIGIGVQGLADAFILMRYPFESAEAQLLNKQIFETIYYGALEASCDLAKEQGPYETYEGSPVSKGILQYDMWNVTPTDLWDWKVLKEKIAKYGIRNSLLIAPMPTASTAQILGNNESIEPYTSNIYTRRVLSGEFQIVNPHLLKDLTERGLWHEEMKNQIIACNGSIQSIPEIPDDLKQLYKTVWEISQKTVLKMAAERGAFIDQSQSLNIHIAEPNYGKLTSMHFYGWKQGLKTGMYYLRTRPAANPIQFTLNKEKLKDKEKVSKEEEEKERNTAAMVCSLENRDECLMCGS
For B1, the “other: thymidine phosphorylase (TP) expression” value (Western blot and qPCR) was “decreases”, the “other: sphere formation” value [1] was “decreases” and the “other: colony formation” value (soft agar colony assay) was “decreases”. For the same protein, the “other: RRM1 serine/threonine phosphorylation” value (blot) was “decreases”, the “other: S-phase duration” value [2] was “increases” and the “other: cellular NTP pools” value (LC/MS) was “decreases”. For the same protein, the “other: DNA damage and replication stress foci” value [3] was “increases”, the “other: cell death” value (LIVE/DEAD staining) was “no change” and the “other: gemcitabine sensitivity” value [4] was “increases”.
